Test results: PMC10520083 (2023)
Read-outs that look alike come from different tables or passages of the source.

T1: human α7 nicotinic acetylcholine receptor with the ICD replaced by a short linker and a C-terminal Rho1D4 tag … (human, UniProt P36544 23-502, N-linked glycans at Asn23, Asn67 and Asn110)
T1 chain: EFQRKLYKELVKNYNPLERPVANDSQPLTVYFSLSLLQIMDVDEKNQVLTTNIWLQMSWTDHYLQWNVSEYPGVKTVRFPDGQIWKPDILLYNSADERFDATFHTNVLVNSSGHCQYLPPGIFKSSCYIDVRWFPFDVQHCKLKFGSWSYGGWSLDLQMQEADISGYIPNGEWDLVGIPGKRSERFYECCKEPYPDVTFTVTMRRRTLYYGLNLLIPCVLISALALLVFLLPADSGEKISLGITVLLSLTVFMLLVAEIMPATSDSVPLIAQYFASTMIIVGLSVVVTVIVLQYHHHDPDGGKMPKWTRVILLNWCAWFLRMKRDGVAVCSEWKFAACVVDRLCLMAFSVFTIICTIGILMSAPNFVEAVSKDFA


Key:
[1] = molecular target: human α7 nicotinic acetylcholine receptor with the ICD replaced by a short linker and a C-terminal Rho1D4 tag (α7∆ICDcryo), reconstituted in MSP1E3D1 nanodiscs (human) (UniProt P36544); assay: cryo-EM structure; 1 µM α7 pentamer in MSP1E3D1 nanodiscs with 50 µM nanobody (50-fold excess), no nicotine (C4-Apo, E3-Apo)
[2] = molecular target: human α7 nicotinic acetylcholine receptor L247T mutant (human) (UniProt P36544)
[3] = molecular target: T1, human α7 nicotinic acetylcholine …; assay: SPR; α7 prep 1
[4] = molecular target: T1, human α7 nicotinic acetylcholine …; assay: SPR; α7 prep 2
[5] = molecular target: T1, human α7 nicotinic acetylcholine …; assay: SPR; α7 prep 1
[6] = molecular target: T1, human α7 nicotinic acetylcholine …; assay: SPR; α7 prep 1, + 100 µM nicotine
[7] = molecular target: T1, human α7 nicotinic acetylcholine …; assay: SPR; α7 prep 1, + 100 µM nicotine
[8] = molecular target: human α7 nicotinic acetylcholine receptor with the ICD replaced by a short linker and a C-terminal Rho1D4 tag (α7∆ICDcryo), reconstituted in MSP1E3D1 nanodiscs (human) (UniProt P36544); assay: cryo-EM structure; 1 µM α7 pentamer in MSP1E3D1 nanodiscs with 50 µM nanobody (50-fold excess) and 100 µM nicotine (C4-Nic, E3-Nic)
[9] = molecular target: human α7 nicotinic acetylcholine receptor with the ICD replaced by a short linker and a C-terminal Rho1D4 tag (α7∆ICDcryo), reconstituted in MSP1E3D1 nanodiscs (human) (UniProt P36544); assay: SPR; single-cycle kinetics, Biacore T200; α7-nanodiscs captured on anti-Rho tag antibody 1D4 immobilised on CM5; nanobodies injected (five increasing concentrations, 600 s each, 30 µl/min); buffer A (20 mM Tris, 250 mM NaCl) pH 8, 25 °C
[10] = molecular target: T1, human α7 nicotinic acetylcholine …; assay: SPR; α7 prep 2
[11] = molecular target: full-length human α7 nicotinic acetylcholine receptor fused to a Rho1D4 tag at its C-terminus (α7FLcryo) (human) (UniProt P36544); assay: cryo-EM structure; 1 µM α7 pentamer in MSP1E3D1 nanodiscs with 50 µM nanobody (50-fold excess) and 100 µM nicotine (C4-Nic, E3-Nic)
[12] = molecular target: human α7 nicotinic acetylcholine receptor with the ICD replaced by a short linker and a C-terminal Rho1D4 tag (α7∆ICDcryo), reconstituted in MSP1E3D1 nanodiscs (human) (UniProt P36544); assay: cryo-EM structure; 1 µM α7 pentamer in MSP1E3D1 nanodiscs with a sub-saturating 10 µM nanobody, no nicotine (C4partial-Apo; 2D classification for E3)
[13] = molecular target: human α7 nicotinic acetylcholine receptor with the ICD replaced by a short linker and a C-terminal Rho1D4 tag (α7∆ICDcryo), reconstituted in MSP1E3D1 nanodiscs (human) (UniProt P36544); assay: SPR; single-cycle kinetics, Biacore T200; α7-nanodiscs captured on anti-Rho tag antibody 1D4 immobilised on CM5; nanobodies injected (five increasing concentrations, 600 s each, 30 µl/min); buffer A (20 mM Tris, 250 mM NaCl) pH 8, 25 °C; remark: listed apart in the source

human α7 nicotinic acetylcholine receptor with the ICD replaced by a short linker and a C-terminal Rho1D4 tag (α7∆ICDcryo), reconstituted in MSP1E3D1 nanodiscs, sequence (P36544 23-502): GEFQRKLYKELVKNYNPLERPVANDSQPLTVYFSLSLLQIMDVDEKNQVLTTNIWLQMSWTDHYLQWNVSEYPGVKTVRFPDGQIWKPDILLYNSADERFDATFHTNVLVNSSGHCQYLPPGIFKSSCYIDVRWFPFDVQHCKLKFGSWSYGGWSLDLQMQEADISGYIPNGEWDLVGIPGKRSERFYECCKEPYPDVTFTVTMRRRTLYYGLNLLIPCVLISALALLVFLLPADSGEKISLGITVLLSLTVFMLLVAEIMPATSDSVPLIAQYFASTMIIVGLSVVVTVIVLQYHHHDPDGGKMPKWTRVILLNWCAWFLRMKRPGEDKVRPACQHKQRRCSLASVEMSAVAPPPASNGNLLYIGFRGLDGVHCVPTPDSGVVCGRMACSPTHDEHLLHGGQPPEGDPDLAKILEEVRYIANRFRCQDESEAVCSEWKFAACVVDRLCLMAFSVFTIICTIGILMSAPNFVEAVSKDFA

Row | Molecule | koff [4] [s⁻¹] | stoichiometry N (nanobodies per α7 pentamer) [1] | Kd [9] [nM] | koff [9] [s⁻¹] | kon [9] [M⁻¹ s⁻¹] | stoichiometry N (nanobodies per receptor molecule) [9] | Kd [10] [nM] | also measured
1 | human α7 nicotinic acetylcholine receptor with the ICD replaced by a short linker and a C-terminal Rho1D4 tag (α7∆ICDcryo), reconstituted in MSP1E3D1 nanodiscs (from UniProt P36544 23-502) | – | – | – | – | – | – | – | stoichiometry N [1]: 5
2 | nanobody E3 (VHH) VHH: AVQLQASGGGLVQAGDSLRLSCAASGGTFSHYAVGWFRQAPGKEREFVAAISWSGRSTSFANSVKGRFTISRDSAKNTAYLQMNNLKPEDTAVYCCAPARFGTGSAARDEYDDCGQGTQVTVSS | 0.019 | 5 | 1 | 0.0119 | 1.1e+07 | < 3 | – | increase of the holding current during pre-application of E3 in the absence of ACh (direct activation, TEVC, Xenopus oocytes) (% of the response to 0.3 µM ACh) [2]: 6; koff [3]: 0.013 s⁻¹; Kd [5]: 8 nM; koff [6]: 0.0085 s⁻¹; Kd [7]: 7.4 nM; stoichiometry N (nanobodies per α7 pentamer) [8]: 5
3 | nanobody E3 R56A (VHH) VHH: AVQLQASGGGLVQAGDSLRLSCAASGGTFSHYAVGWFRQAPGKEREFVAAISWSGASTSFANSVKGRFTISRDSAKNTAYLQMNNLKPEDTAVYCCAPARFGTGSAARDEYDDCGQGTQVTVSS | 0.01 | – | – | – | – | – | 1.5 | –
4 | nanobody E3 E110Q (VHH) VHH: AVQLQASGGGLVQAGDSLRLSCAASGGTFSHYAVGWFRQAPGKEREFVAAISWSGRSTSFANSVKGRFTISRDSAKNTAYLQMNNLKPEDTAVYCCAPARFGTGSAARDQYDDCGQGTQVTVSS | 0.011 | – | – | – | – | – | 0.62 | –
5 | nanobody C4 (VHH) VHH: QVQLVESGGGLVQAGGSLKLSCAASGFTFAHYAMVWFRQAPGKEREFVAGISWSGASTYYASSVKGRFTISRDNAKNTVYLQMNSLKPEDTAVYYVAAARFGVGVDDDYSYWGQGTQVTVSS | – | 5 | 0.2 | 0.00024 | 1.2e+06 | < 3 | – | stoichiometry N (nanobodies per α7 pentamer) [11]: 5; stoichiometry N (nanobodies per α7 pentamer) [12]: 3; Kd [13]: 0.1 nM
